Results taken from patent publication US6071515.

Target: Bovine submaxillary mucin (BSM) (bovine)
Assay: binding of the 125I-labelled protein to BSM

| Substance | Percent Activity (as determined by BSM binding) [percent] |
| --- | --- |
| CC49, murine monoclonal antibody specific to TAG-72 (ATCC No. HB9459) | 96 |
| ChCC49 Fab | 64 |
